The test system of test [1] is embryonic mouse tibia. The test can be described thus: Embryonic mouse tibia organ culture ex vivo (growth, staining, histology). Here is the method: FIGS. 20A, 20B and 20C. F-spondin regulates bone growth and morphology in mouse tibial organ cultures. Longitudinal growth and histological analysis of embryonic mouse tibia after 7 days of culture ex vivo. Tibia were treated with recombinant F-spondin FS (1 mg/ml) or an anti-F-spondin, TSR-domain specific (R1) antibody. (A) Representative images of whole tibia stained with alcian blue (proteoglycans) and alizarin red (mineral). (B) Tibial growth was measured after 7 days of organ culture and expressed as percent of original length at day 0. Average growth for control cultures has been set to 100% (C) H&E stained sections of corresponding limbs after 7 days treatment. Arrows indicate hypertrophic chondrocytes in the […] growth plate.
All animal experiments were conducted according to the guidelines of the Institutional Animal Care and Use Committee (IACUC) of New York University. […] After 12 hours, tibiae were placed in 24-well Falcon plates and initial longitudinal length was measured using a stereomicroscope. […] (purchased from R&D Systems, Minneapolis, Minn. (Cat No AF3135). Media was changed every 24 hours beginning on day one, and tibial length was measured again at the end of one week. The results were expressed as percentage changes in length relative to day one. […]

The subject of test [2] is chick chondrocytes. The test can be described thus: Alkaline phosphatase (AP) activity in RA-stimulated chick chondrocyte cultures. As to conditions: F-Spondin 1 ug/ml with RA, 3 days. In kind it is cell-based. As for the experimental part: FIG. 16. Inhibition of F-spondin decreases AP activity in RA stimulated cultures. Chick chondrocytes were treated with RA at 100 nm for 5 days with and without F-spondin antibodies and AP activity assessed. Antibodies with specificities to the spondin domain (medium grey) and TSR domain (black) inhibited AP activity compared to ctrl (noAb) (light grey). Note the greater inhibitory effect of the TSR domain antibody. * p=<0.05 versus no ab ctrl.
FIG. 17. The pro-maturation effect of F-spondin is not inhibited following neutralization of TGF-β activity by coculture with Latency Associated Peptide (LAP). AP activity was determined in chick chondrocyte cultures by ELISA following RA stimulation for 3 days. Cultures were either ctrl (RA only) or RA with either F-Spondin (1 ug/ml) or LAP (10 or 100 ng/ml), or RA with F-Spondin (1 ug/ml) and LAP (10 or 100 ng/ml) in combination.
FIG. 18. Blocking αvβ3 integrin inhibits the promaturation effect of F-spondin. Chondocyte cultures were transfected as previously and stimulated with RA for 3 days in the presence of IgG control, or αvβ3 blocking antibodies prior to assay for AP activity. Inhibition of αvβ3 led to a ˜50% suppression of F-spondin-induced AP activity but had no effect on baseline AP activity (vector ctrl).
FIGS. 23A, 23B and 23C. F-spondin regulation of chondrocyte maturation requires the TSR domain. (A) Schematic representation of F-spondin protein domains and plasmid constructs encoding either full length (FS1) or TSR domain truncated (FS6) cDNAs. (B) Relative AP activity of FS or pcDNA3 control transfected cultures after 5 days treatment. (C) Relative AP activity following inhibition of F-spondin protein domains. Upper sternal chondrocytes were stimulated with 0, 10, 35 or 100 nM retinoic acid (RA) for 5 days in culture. […]
We next determined that the pro-maturation effect of F-spondin is not inhibited following neutralization of TGF-β activity by coculture with Latency Associated Peptide (LAP) (R&D Systems, Cat No 246-LP/CF). […] AP activity was determined in chick chondrocyte cultures by ELISA following RA stimulation for 3 days. […]

B1: F-spondin: 110 kDa, secreted, heparin-binding extracellular matrix glycoprotein; used as recombinant protein (R&D systems) or transfected-cell supernatant (protein, UniProt Q9HCB6 29-807, looked up)
Spondin-1: FSDETLDKVPKSEGYCSRILRAQGTRREGYTEFSLRVEGDPDFYKPGTSYRVTLSAAPPSYFRGFTLIALRENREGDKEEDHAGTFQIIDEEETQFMSNCPVAVTESTPRRRTRIQVFWIAPPAGTGCVILKASIVQKRIIYFQDEGSLTKKLCEQDSTFDGVTDKPILDCCACGTAKYRLTFYGNWSEKTHPKDYPRRANHWSAIIGGSHSKNYVLWEYGGYASEGVKQVAELGSPVKMEEEIRQQSDEVLTVIKAKAQWPAWQPLNVRAAPSAEFSVDRTRHLMSFLTMMGPSPDWNVGLSAEDLCTKECGWVQKVVQDLIPWDAGTDSGVTYESPNKPTIPQEKIRPLTSLDHPQSPFYDPEGGSITQVARVVIERIARKGEQCNIVPDNVDDIVADLAPEEKDEDDTPETCIYSNWSPWSACSSSTCDKGKRMRQRMLKAQLDLSVPCPDTQDFQPCMGPGCSDEDGSTCTMSEWITWSPCSISCGMGMRSRERYVKQFPEDGSVCTLPTEETEKCTVNEECSPSSCLMTEWGEWDECSATCGMGMKKRHRMIKMNPADGSMCKAETSQAEKCMMPECHTIPCLLSPWSEWSDCSVTCGKGMRTRQRMLKSLAELGDCNEDLEQVEKCMLPECPIDCELTEWSQWSECNKSCGKGHVIRTRMIQMEPQFGGAPCPETVQRKKCRIRKCLRNPSIQKLRWREARESRRSEQLKEESEGEQFPGCRMRPWTAWSECTKLCGGGIQERYMTVKKRFKSSQFTSCKDKKEIRACNVHPC
For the molecule B1, the alizarin red staining entry in test [1] (7 days culture, compared to untreated limbs) is recorded as “slight increase”. Besides, the “number of hypertrophic chondrocytes (H&E)” value in test [1] (growth plate cartilage adjacent to mineralized core) is “increased numbers”. Also, in test [2], the AP activity result was “increase”.

(Values after patent publication US20140274766A1, “METHODS OF USING F-SPONDIN AS A BIOMARKER FOR CARTILAGE DEGENERATIVE CONDITIONS AND BONE DISEASES” (priority 2009, published 2014).)
